B1: RTP4 (parent)
chain: TYWEHWTSQGQVRMRLFGQRCQKC

Variants of: B1
Test: protein stability index of a GFP-peptide fusion (GPS, HEK-293T) (PSI 1-6); higher = more stable
Conditions: c terminus: a fixed tail appended
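Note: lentivirally expressed fusions sorted by FACS into six bins by GFP to DsRed ratio, PSI derived from sequencing read proportions per bin multiplied by bin number.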

Protein stability index: each site, then its substitutions
L16: C 2.99, K 1.25, H 2.34, Q 1.79, S 1.75, A 1.6, I 1.62, G 2.13, D 2.85, N 2.43, T 1.14, R 1.91, P 2.13, F 2.22
T7: K 2.04, A 1.53, L 1.61, R 1.98, Y 1.2, F 1.21, V 1.93, N 1.76, P 2.27, W 2.06, D 1.86, Q 1.77, S 1.79, C 3.39, H 1.96
W6: C 2.25, V 2.32, T 1.94, S 2.13, Y 2.05, R 2.7, A 2.4, M 1.52, K 1.6, E 1.95, Q 2.65, F 1.39, P 2.07, D 3.38, N 2.11, L 1.61, G 1.75
M14: Q 1.73, W 1.77, A 2, C 2.58, Y 1.9, L 1.39, H 2.18, K 2.9, D 2.05, V 1.89, N 1.69, T 1.84, R 2.29, S 1.5, G 2.51, F 1.63, E 2.36
S8: C 1.79, Y 1.82, R 1.89, N 1.32, I 2.05, V 1.67, L 1.23, M 3.02, Q 1.77, K 2.5, G 2.05, D 1.87, E 1.76, H 2.56, A 3.23, P 1.66, T 3.23
R13: S 1.59, I 2.76, V 1.65, P 1.92, E 1.74, W 2.11, D 2.04, H 2.4, L 1.69, G 1.65, N 1.54, C 2.78
Q9: C 1.48, W 1.69, G 1.27, V 2.5, T 1.8, P 1.6, D 1.4, I 2.08, R 2.24, E 2.02, K 2.17, F 1.77, N 2.08, A 1.95, H 1.18
G10: S 2.39, P 1.91, Q 1.8, L 1.89, F 2.53, Y 1.92, I 2.47, W 2.07, A 1.33, H 1.76, T 2.27, D 2.21, C 1.87, R 1.69, M 1.68
R15: H 1.85, L 1.97, Q 1.86, F 1.75, I 2.12, P 1.87, C 3.05, V 1.64, N 2.1, K 2.31, T 1.7, G 1.6, A 2.06, D 2.71, M 2.09, S 1.21, E 2.07
Q11: Y 1.58, P 2.14, L 2.02, K 2.48, A 1.84, D 2.41, R 2.6, M 2.4, C 3.14, I 2.31, N 2.01, H 1.65, S 2.59, G 2.64
V12: A 1.04, H 2.21, R 1.76, T 2.09, E 2.19, P 1.98, C 2.42, K 1.57, I 1.61, Q 1.51, N 1.65, D 1.7, W 3.46, Y 2.65

Source: the supplement of paper PMC10567573
